Measurements from patent US20220026415A1 (NATIONAL CANCER CENTER, published 2022).

Experiments:
Experiment in all cases: immunoprecipitation with anti-RARRES1 antibody from RARRES1-transfected HEK293 cells with or without nocodazole, immunoblot
[1] = molecular target: CDK2 (endogenous, HEK293 cells) (UniProt P24941 1-298)
Description: (§1) The cells were lysed in a lysis buffer (20 mM Tris, pH 7.4, 5 mM EDTA, 10 mM Na₄ P₂O₇, 100 mM NaF, 1% NP-40, 1 mM PMSF, 0.2% protease inhibitor cocktail and phosphatase inhibitor). The protein concentrations of the cell lysates were measured using a Pierce BCA Protein Assay kit (Pierce, Rockford, USA). Subsequently, protein lysates were resuspended in a loading buffer, boiled for 5 minutes, and then subjected to SDS-PAGE and immunoblotting with the indicated antibodies. For immunoprecipitation, a TAP buffer (25 mM Tris, pH 7.4, 140 mM NaCl, 0.5% NP-40, 10 mM NaF, 1 mM dithiothreitol (DTT), 1 mM phenylmethylsulphonyl fluoride, 1 mM EDTA, 1 mM Na₃VO₄, 1 mM β-glycerophosphate, 10% glycerol and 0.2% protease inhibitor cocktail and phosphatase inhibitor) was added to the cell lysates, and then the cell lysates were incubated along with a RARRES1 antibody (R & D System, MN, USA) or GST beads at 4° C. Protein expression was detected by chemiluminescence using the SuperSignal West Pico Chemiluminescent Substrate (Pierce).
(§2) In addition, it was examined whether RARRES1 interacted with other CDK-Cyclin complexes, including interphase CDKs (CDK2, CDK4, and CDK6) and their binding partner Cyclins, and immunoprecipitation according to Example 1-8 was performed on 293 cells under the same conditions as those in FIG. 7C.

[2] = molecular target: Cyclin A (endogenous, HEK293 cells) (UniProt P20248 1-432, limits assumed)
Cyclin A (endogenous, HEK293 cells), sequence (P20248 whole entry): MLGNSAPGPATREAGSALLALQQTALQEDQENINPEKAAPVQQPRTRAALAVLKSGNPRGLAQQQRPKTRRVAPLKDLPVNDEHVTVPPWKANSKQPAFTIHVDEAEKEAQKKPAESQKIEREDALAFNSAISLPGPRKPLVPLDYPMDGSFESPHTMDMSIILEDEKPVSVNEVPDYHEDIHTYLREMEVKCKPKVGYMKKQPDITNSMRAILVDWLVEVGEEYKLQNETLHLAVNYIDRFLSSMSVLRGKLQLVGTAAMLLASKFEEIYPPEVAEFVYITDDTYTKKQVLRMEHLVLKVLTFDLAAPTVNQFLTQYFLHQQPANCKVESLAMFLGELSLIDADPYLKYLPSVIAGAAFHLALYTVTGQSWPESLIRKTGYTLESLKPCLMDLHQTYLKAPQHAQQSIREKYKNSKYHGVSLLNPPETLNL
Description: as §1, §2

[3] = molecular target: CDK4 (endogenous, HEK293 cells) (UniProt P11802 2-303)
CDK4 (endogenous, HEK293 cells), sequence (P11802 2-303 limits assumed): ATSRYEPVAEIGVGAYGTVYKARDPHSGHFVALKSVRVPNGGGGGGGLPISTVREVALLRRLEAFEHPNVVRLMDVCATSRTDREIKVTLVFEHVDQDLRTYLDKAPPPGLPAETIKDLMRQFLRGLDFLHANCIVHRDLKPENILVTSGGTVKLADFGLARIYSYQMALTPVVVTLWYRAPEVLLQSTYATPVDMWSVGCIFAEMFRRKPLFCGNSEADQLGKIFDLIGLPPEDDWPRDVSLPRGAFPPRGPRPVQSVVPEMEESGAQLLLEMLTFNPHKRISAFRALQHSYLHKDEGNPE
Description: as §1, §2

[4] = molecular target: T1, Cyclin D (endogenous, HEK293 cells) (UniProt P24385 1-295, limits assumed)
T1 construct: Printed only as 'Cyclin D'; Cyclin D1 is inferred from the antibody list; also called Cyclin D1
T1 sequence (P24385 whole entry): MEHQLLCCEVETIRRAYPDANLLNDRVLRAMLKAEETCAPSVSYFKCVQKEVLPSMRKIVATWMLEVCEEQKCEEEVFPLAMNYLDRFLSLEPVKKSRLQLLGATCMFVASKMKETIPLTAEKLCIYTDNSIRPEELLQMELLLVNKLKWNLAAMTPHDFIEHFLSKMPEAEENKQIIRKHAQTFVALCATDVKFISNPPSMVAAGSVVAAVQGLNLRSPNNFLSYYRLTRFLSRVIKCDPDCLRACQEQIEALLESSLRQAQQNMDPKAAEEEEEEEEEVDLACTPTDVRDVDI
Description: as §1, §2

Measured: binding result

B1: retinoic acid receptor responder 1 (RARRES1), isoform 1, wild type, overexpressed in HEK293 cells (other)
chain: MQPRRQRLPAPWSGPRGPRPTAPLLALLLLLAPVAAPAGSGDPDDPGQPQDAGVPRRLLQQAARAALHFFNFRSGSPSALRVLAEVQEGRAWINPKEGCKVHVVFSTERYNPESLLQEGEGRLGKCSARVFFKNQKPRPTINVTCTRLIEKKKRQQEDYLLYKQMKQLKNPLEIVSIPDNHGHIDPSLRLIWDLAFLGSSYVMWEMTTQVSHYYLAQLTSVRQWKTNDDTIDFDYTVLLHELSTQEIIPCRIHLVWYPGKPLKVKYHCQELQTPEEASGTEEGSAVVPTELSNF
notes: also called RARRES1-1
no binding: all assays above
